Experimental data published in patent US7291768.

Columns and labels:
[1] = biological target: T1, GAD-OsMYBS1 (Oryza sativa) (UniProt B8A9B2); assay: one_hybrid; conditions: LacZ increase vs no OsMYBS
T1 sequence: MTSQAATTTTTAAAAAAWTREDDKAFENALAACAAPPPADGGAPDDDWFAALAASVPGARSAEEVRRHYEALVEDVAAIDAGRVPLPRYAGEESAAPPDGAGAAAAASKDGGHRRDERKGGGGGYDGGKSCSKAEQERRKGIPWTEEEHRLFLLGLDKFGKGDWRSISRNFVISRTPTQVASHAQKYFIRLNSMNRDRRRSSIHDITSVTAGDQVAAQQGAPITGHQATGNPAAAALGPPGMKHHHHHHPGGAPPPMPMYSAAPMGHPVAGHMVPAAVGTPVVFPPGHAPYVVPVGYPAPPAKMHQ

[2] = biological target: GAD-OsMYBS2 (Oryza sativa) (UniProt B8BI93); assay: one_hybrid; conditions: LacZ increase vs no OsMYBS
GAD-OsMYBS2 (Oryza sativa), sequence (B8BI93 other isoform, or with tags, fused parts or gaps): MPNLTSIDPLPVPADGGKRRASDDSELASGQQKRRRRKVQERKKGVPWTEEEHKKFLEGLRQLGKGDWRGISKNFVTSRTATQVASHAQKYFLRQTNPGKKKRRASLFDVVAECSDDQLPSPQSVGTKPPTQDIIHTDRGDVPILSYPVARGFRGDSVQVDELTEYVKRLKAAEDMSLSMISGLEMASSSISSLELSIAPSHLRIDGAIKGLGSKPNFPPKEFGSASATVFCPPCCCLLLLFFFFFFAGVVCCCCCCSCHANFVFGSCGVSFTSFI

Question: “8x(TATCCA+F), eight repeats of -133 to -82 of alphaAmy3” was tested. Which activity [1] did it give?
Answer: 3 fold

Question: And the activity [2]?
Answer: 5 fold
